The values below are quoted from earlier work in article PMC3079273.

Where two headings read alike, the source gives them in different places.

For series [1], the target named is nitrate reductase (Arabidopsis thaliana) (UniProt P11035).
The target is the same in series [2]. The source holds these as a separate data set.
For the next series, the target named is Glu1261 (UniProt position 1261, SKAVGEPPLFL). The series can be described thus: kinetics. Conditions: free oxidized enzyme reacting with free substrate (xanthine).

Chain of nitrate reductase (Arabidopsis thaliana) (P11035 whole entry): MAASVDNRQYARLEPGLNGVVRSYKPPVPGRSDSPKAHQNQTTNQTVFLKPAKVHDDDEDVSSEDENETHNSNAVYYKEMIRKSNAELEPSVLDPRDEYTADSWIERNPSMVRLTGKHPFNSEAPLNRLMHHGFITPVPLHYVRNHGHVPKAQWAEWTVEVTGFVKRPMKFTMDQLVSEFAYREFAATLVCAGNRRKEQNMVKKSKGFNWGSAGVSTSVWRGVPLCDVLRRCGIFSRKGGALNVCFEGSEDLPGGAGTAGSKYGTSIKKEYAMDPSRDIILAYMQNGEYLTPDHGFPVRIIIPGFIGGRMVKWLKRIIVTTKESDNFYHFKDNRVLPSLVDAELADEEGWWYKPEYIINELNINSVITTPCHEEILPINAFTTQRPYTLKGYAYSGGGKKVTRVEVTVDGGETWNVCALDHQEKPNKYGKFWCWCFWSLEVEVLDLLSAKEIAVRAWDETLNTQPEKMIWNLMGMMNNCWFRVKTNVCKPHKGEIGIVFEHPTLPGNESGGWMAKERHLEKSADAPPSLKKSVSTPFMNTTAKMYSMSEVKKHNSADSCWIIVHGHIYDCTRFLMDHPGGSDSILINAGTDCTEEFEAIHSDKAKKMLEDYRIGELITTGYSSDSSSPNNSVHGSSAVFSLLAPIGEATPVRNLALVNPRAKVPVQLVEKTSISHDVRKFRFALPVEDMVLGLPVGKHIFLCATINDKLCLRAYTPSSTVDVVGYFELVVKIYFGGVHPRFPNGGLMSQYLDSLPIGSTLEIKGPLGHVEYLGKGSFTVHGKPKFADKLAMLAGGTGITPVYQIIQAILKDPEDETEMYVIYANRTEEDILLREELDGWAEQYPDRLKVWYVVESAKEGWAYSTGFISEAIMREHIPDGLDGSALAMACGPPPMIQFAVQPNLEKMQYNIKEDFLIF
Chain of 14-3-3 omega (Q01525 whole entry): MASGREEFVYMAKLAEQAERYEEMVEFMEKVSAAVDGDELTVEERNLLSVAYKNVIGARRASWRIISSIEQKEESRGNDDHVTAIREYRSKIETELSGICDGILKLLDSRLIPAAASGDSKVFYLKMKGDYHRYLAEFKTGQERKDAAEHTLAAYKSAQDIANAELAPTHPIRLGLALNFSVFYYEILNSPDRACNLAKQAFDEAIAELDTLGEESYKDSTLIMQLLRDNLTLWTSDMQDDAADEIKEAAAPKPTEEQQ
Chain of 14-3-3 lambda (P48349 whole entry): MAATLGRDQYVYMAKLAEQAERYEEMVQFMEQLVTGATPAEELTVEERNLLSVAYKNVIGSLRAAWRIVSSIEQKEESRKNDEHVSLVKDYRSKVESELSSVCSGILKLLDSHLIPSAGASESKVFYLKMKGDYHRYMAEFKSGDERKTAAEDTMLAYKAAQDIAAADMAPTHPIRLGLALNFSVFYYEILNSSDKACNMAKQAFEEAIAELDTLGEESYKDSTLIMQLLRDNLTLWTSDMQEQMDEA

The Ki is the dissociation constant of the complex between target and ligand, obtained from inhibition or displacement. For 14-3-3 lambda (from UniProt P48349), the Ki in series [1] is 80 nM.

With 14-3-3 omega (from UniProt Q01525), the Ki in series [2] is 60 nM.

One may read the pKa as the negative logarithm of the acid dissociation constant. Regarding “Xanthine oxidoreductase (xanthine oxidase / xanthine dehydrogenase) (Bos taurus)”, the pKa with Glu1261 was 6.6.
